From publication PMC9253678, “Computer-Aided Design of α-L-Rhamnosidase to Increase the Synthesis Efficiency of Icariside I” (Frontiers in Bioengineering and Biotechnology, 2022)
Numbering of substitutions follows the chain as printed. Names may count otherwise.

B1: TpeRha (Thermotoga petrophila RKU-1; D506A/K579A) (protein)
chain: MIQACDLRCEYLTSPVLGLDVIPRFSWRLKGNGKKQTRYKIIVSDNFDDIERGIGNVWESEKDSSKNLNIEYEGPKLKAYKGYYWRVKLWDEKENGPWSETAYFEMGPLEDWRGKWITMPSPLSFKDPAHRHELFYAMYFRKEFLLNKEVEKARVYVSGLGVYELHLNGKRVGNNVLDPAPTDYNKVALYSTYDVTQYLTTGKNTIGVILGNGRHIRDYGYSKPKLYLQLLVFYKDGSREFICSDETWKVSHGPLKENGIYFGEVYDARDEISGWDSPGFDDRNWSEVEIVEGPSLKAQLIPVIRVCEVIKPKRLWLSSRGTFIVDFGKNISGWVKLRVNNGKRGEKIIIRYAEVLDPSMDRLDTRNLRLARATDEYILKGQGVEIYEPRFTYHGFRYVEVEDYPGTLTSDNIEAMFVHTDVEKVGDFACSSELLNKIHSCVVNSQLANLMGIPTDCPQRDERMGWLGDAQLTVEEAMYNFDMAAFYTKYLMDIKLSQKEDGSISAVAPPYWKRYPSDPAWGTAYATILWYLYFFYEDRRVLEEHYDSLKRYVEFLRKNSPNHLTKLGQHGDWCPPGDAFPKRTPLILTSTWYYYHDTLILSEIAKILGKKEDEHEYRKLAGEIKEAFNRHFLRKVEDHTGRIVCFYRGIKLSPKDRIPTTQTCNVLPLWNKMVPEECREDVFKVLERLIEVDNDTHFDTGIVGTRYILEVLSENGRKDLALKLLLKEDYPSFGYMIKNGATTLWERWEKLEGTGMNSHNHVMLGSVDTWFYKYLSGIKPVAPGWKKIRIEPYFADQIDFVSAKIKTPNGSLEVSWKKQNKEYEIQIIIPVNTVGIFAVPESFKVSAINSKQVSYPSEFELEPGAYNIVLERVREC
notes: codon-optimized synthetic gene in pET-28a, E. coli BL21(DE3), Ni-NTA purified (His tag of vector); model domains span 1-861
B2: TpeRha (Thermotoga petrophila RKU-1; H570A/K579A) (protein)
chain: B1 chain with A506D, H570A
notes: as for B1

Substrate: COc1ccc(-c2oc3c(CC=C(C)C)c(O[C@@H]4O[C@H](CO)[C@@H](O)[C@H](O)[C@H]4O)cc(O)c3c(=O)c2O[C@@H]2O[C@@H](C)[C@H](O)[C@@H](O)[C@H]2O)cc1
Assay: HPLC of icariside I formation, Michaelis-Menten nonlinear fit
Type: biochemical, Thermotoga petrophila
Conditions: pH 4.6, icariin 0.1–4 mg/ml
From the text: HPLC of icariside I formation, Michaelis-Menten nonlinear fit on […]

[1] = optimal conditions of the mutant: 70°C
[2] = optimal conditions of the mutant: 80°C

| Protein | Km [1] | Vmax [1] | kcat [1] | kcat/Km [1] | Km [2] | Vmax [2] | kcat [2] | kcat/Km [2] |
| --- | --- | --- | --- | --- | --- | --- | --- | --- |
| B1 | 1.39 ± 0.45 µM | 1.37 µM/min | 5.68e-05 s⁻¹ | 40.9 M⁻¹ s⁻¹ |  |  |  |  |
| B2 |  |  |  |  | 0.93 ± 0.08 µM | 5.56 µM/min | 0.000118 s⁻¹ | 127 M⁻¹ s⁻¹ |
